Molecular target: AchR (Homo sapiens, UniProt P02708)
Experiment: ELISA of screened peptide phages on AchR versus streptavidin (OD450)
Type: binding
Conditions: ELISA of selected 11-mer (L2) peptide phages on AchR, absorbance at 450 nm; Spep-2 positive control
Description: The output phages for the 4th and 5th rounds of biopanning in Example 13-1 were inoculated to E. coli, and plated on the agar plates so as to form 100-200 plaques per plate. The plaques were inoculated on 1 ml of an SB liquid medium containing 50 μg/ml of ampicillin by using a sterile tip, and cultured with shaking at 37° C. for 5 hours, followed by the addition of 30 μl of helper phages, and then cultured at 37° C. and 200 rpm for one day. The culture was centrifuged at 12,000 rpm for 2 minutes to collect supernatant, and 2% BSA was added to the supernatant, and used for phage screening.
In a 96-well ELISA plate, 5 μg/ml AchR or streptavidin was added at 50 μl per well, and left at 4° C. overnight. The next day, the solution in each well was discarded, followed by the addition of 2% BSA, and then blocked at room temperature for 2 hours. After the solution was all discarded, the wells were washed three times with Tris (20 mM, pH7). In addition, 100 μl of each of the phage solutions obtained from the above-prepared plaques was dispensed into wells and left at 30° C. for 1 hour. After the solution in the wells was all discarded, the wells were washed three times with Tris (20 mM, pH 7), and then the HRP-conjugated anti-M13 antibody diluted 1:2,000 was added at 100 μl per well, followed by culture at 30° C. for 1 hour. After the wells were washed three times with Tris (20 mM, pH7), 100 μl of tetramethylbenzidine was added to each well to induce a color development reaction, and then the reaction was stopped by the addition of 100 μl of 1M H2SO4, and the absorbance at 450 nm (OD450) was measured. The measured absorbance was converted into a ratio of AchR absorbance to streptavidin absorbance (AchR signal/streptavidin signal), and the results are shown in FIGS. 14 to 16.

Chain of AchR (P02708 21-457): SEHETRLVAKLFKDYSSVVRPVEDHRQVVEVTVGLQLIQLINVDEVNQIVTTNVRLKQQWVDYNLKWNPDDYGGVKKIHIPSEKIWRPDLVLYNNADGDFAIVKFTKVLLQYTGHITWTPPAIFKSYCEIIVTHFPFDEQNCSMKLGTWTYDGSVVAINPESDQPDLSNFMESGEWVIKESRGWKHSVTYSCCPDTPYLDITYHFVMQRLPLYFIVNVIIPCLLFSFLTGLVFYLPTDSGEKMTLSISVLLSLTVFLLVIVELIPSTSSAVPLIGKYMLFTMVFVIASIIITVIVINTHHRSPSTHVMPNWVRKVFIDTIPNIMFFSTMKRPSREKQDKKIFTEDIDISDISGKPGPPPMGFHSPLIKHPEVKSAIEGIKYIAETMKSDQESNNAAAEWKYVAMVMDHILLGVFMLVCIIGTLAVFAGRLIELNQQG

Point of comparison: “L2-12 (AYAKARRWGQK; AchR binding peptide) [Peptide L2-12]”, OD 0.83. Against it:
- L2-192 (EHVKLKRLDFR; AchR binding peptide) [Peptide L2-192] — lower, 0.685
- L2-127 (YIIRWKRQMTR; AchR binding peptide) [Peptide L2-127] — lower, 0.569
- L2-109 (YPTKGKRCMIR; AchR binding peptide) [Peptide L2-109] — lower, 0.596
- L2-90 (TSVKKRKQRLR; AchR binding peptide) [Peptide L2-90] — lower, 0.765
- L2-146 (LIGKFKKPFYR; AchR binding peptide) [Peptide L2-146] — lower, 0.605
- L2-123 (HDTKCKKMYAK; AchR binding peptide) [Peptide L2-123] — lower, 0.473
- L2-184 (MHQRERRNFVK; AchR binding peptide) [Peptide L2-184] — lower, 0.736
- L2-75 (YILRDKKVPLK; AchR binding peptide) [Peptide L2-75] — lower, 0.539
- L2-147 (TWCKHKKLDMK; AchR binding peptide) [Peptide L2-147] — lower, 0.641
- L2-8 (FGHRGKKEWAR; AchR binding peptide) [Peptide L2-8] — lower, 0.739
- L2-53 (PAWRCKRCQPK; AchR binding peptide) [Peptide L2-53] — lower, 0.614
- L2-79 (EGAKYRRDGWR; AchR binding peptide) [Peptide L2-79] — lower, 0.689
- L2-113 (QNDKDRKLSHR; AchR binding peptide) [Peptide L2-113] — lower, 0.64
- L2-10 (TSQKVRKMEAK; AchR binding peptide) [Peptide L2-10] — lower, 0.803
- L2-6 (PELKCKRMIGR; AchR binding peptide) [Peptide L2-6] — lower, 0.78
- L2-157 (NFYKCRKLQCK; AchR binding peptide) [Peptide L2-157] — lower, 0.731
- L2-88 (NAMRTKRMSFK; AchR binding peptide) [Peptide L2-88] — lower, 0.744
- L2-65 (PLWKTRKIEPR; AchR binding peptide) [Peptide L2-65] — lower, 0.731
- L2-40 (PEVKVRRHSMR; AchR binding peptide) [Peptide L2-40] — lower, 0.685
- L2-61 (PTIRVRKSDDR; AchR binding peptide) [Peptide L2-61] — lower, 0.688
- L2-154 (NPFKYKKICPK; AchR binding peptide) [Peptide L2-154] — lower, 0.736
- L2-182 (HEQRPKKGQQK; AchR binding peptide) [Peptide L2-182] — lower, 0.681
- L2-92 (FVGRWKREYAK; AchR binding peptide) [Peptide L2-92] — lower, 0.634
- L2-70 (QLLKMRKALSR; AchR binding peptide) [Peptide L2-70] — lower, 0.67
- L2-114 (QVTKSKRVAFK; AchR binding peptide) [Peptide L2-114] — lower, 0.643
- L2-43 (LMDRTRRDMYK; AchR binding peptide) [Peptide L2-43] — lower, 0.572
- L2-108 (QQDRPKRDIPK; AchR binding peptide) [Peptide L2-108] — lower, 0.716
- L2-71 (PYLRSKRFPPR; AchR binding peptide) [Peptide L2-71] — lower, 0.651
- L2-86 (SQWKIRKRLIR; AchR binding peptide) [Peptide L2-86] — lower, 0.701
- L2-67 (KTGRSKRHRWR; AchR binding peptide) [Peptide L2-67] — lower, 0.696
- L2-5 (TQQRLKRVMEK; AchR binding peptide) [Peptide L2-5] — lower, 0.752
- L2-139 (SVLRCRKCSMK; AchR binding peptide) [Peptide L2-139] — lower, 0.528

Same assay, conditions: ELISA of selected 14-mer (L3) peptide phages on AchR, absorbance at 450 nm; Spep-2 positive control

Point of comparison: “L3-58 (SLPKWRKGGDRVFT; AchR binding peptide) [Peptide L3-58]”, OD 0.664. Against it:
- L3-140 (EHCKWKKMFDKEGE; AchR binding peptide) [Peptide L3-140] — lower, 0.607
- L3-56 (QISKLKRPSYRGDD; AchR binding peptide) [Peptide L3-56] — higher, 0.703
- L3-116 (YGSKQRRFEEKICG; AchR binding peptide) [Peptide L3-116] — lower, 0.644
- L3-79 (QQFKYRRECVKYGS; AchR binding peptide) [Peptide L3-79] — higher, 0.701
- L3-109 (YITKFRKFLMKDQF; AchR binding peptide) [Peptide L3-109] — lower, 0.613
- L3-181 (GPCRPRRHSIRLLW; AchR binding peptide) [Peptide L3-181] — lower, 0.624
- L3-142 (LQCKYRRGSDKTVV; AchR binding peptide) [Peptide L3-142] — lower, 0.502
- L3-23 (QYHKVRKLWFRVEP; AchR binding peptide) [Peptide L3-23] — higher, 0.799
- L3-6 (EFVKLRKARLRGPQ; AchR binding peptide) [Peptide L3-6] — higher, 0.77
- L3-127 (WVDRSRKFEDRNCL; AchR binding peptide) [Peptide L3-127] — lower, 0.608
- L3-108 (ESYRLRRGTDKEQW; AchR binding peptide) [Peptide L3-108] — lower, 0.621
- L3-30 (WAHKCKKPGQRIPP; AchR binding peptide) [Peptide L3-30] — higher, 0.771
- L3-22 (HSLKTRKSAFKSNT; AchR binding peptide) [Peptide L3-22] — higher, 0.83
- L3-83 (SYLKCKRSDYKEVP; AchR binding peptide) [Peptide L3-83] — higher, 0.768
- L3-72 (TGCRCKRSMYKNLH; AchR binding peptide) [Peptide L3-72] — higher, 0.746
- L3-107 (DLSKVRRGHGKNDI; AchR binding peptide) [Peptide L3-107] — lower, 0.658
- L3-147 (ADHRAKKTLSKFWT; AchR binding peptide) [Peptide L3-147] — lower, 0.562
- L3-71 (PLIKVKRGVGKLWN; AchR binding peptide) [Peptide L3-71] — higher, 0.78
- L3-34 (LGWKKRKSLLRRHV; AchR binding peptide) [Peptide L3-34] — higher, 0.74
- L3-4 (MPQKLKKLDIRNHN; AchR binding peptide) [Peptide L3-4] — higher, 0.905
- L3-128 (IVNRAKRSQIRFDV; AchR binding peptide) [Peptide L3-128] — lower, 0.523
- L3-132 (TITRVKRASHKTPS; AchR binding peptide) [Peptide L3-132] — lower, 0.619
- L3-74 (IAIRPRKMTLKIHP; AchR binding peptide) [Peptide L3-74] — higher, 0.726
- L3-97 (WSAKGRRMGCKSTM; AchR binding peptide) [Peptide L3-97] — higher, 0.684
- L3-138 (TNQRPRRETAKTIE; AchR binding peptide) [Peptide L3-138] — lower, 0.576
- L3-99 (PCWKFRRAQMKWGI; AchR binding peptide) [Peptide L3-99] — higher, 0.692
- L3-89 (EWCKNKRWHSREYP; AchR binding peptide) [Peptide L3-89] — lower, 0.624
- L3-149 (PFGKFKRLENKDEC; AchR binding peptide) [Peptide L3-149] — lower, 0.571

Same assay, conditions: phage ELISA, absorbance at 450 nm, 5 μg/ml AchR; 4th and 5th round biopanning phages

Point of comparison: RNKRDENK [Peptide L1-29], OD 0.646. Against it:
- RARKESHK [Peptide L1-166] — higher, 0.649
- KKRKSLLR [Peptide L1-159] — lower, 0.593
- KGKKYYQK [Peptide L1-105] — lower, 0.507
- KSRRSAGK [Peptide L1-73] — lower, 0.644
- RIRRAHDR [Peptide L1-165] — lower, 0.644
- KVKRLWNR [Peptide L1-110] — lower, 0.422
- RFKRMVWR [Peptide L1-99] — lower, 0.543
- KDRKGVYK [Peptide L1-111] — lower, 0.608
- RNRKIPLK [Peptide L1-44] — lower, 0.59
- KVRKSLWK [Peptide L1-52] — lower, 0.56
- KCKKDNDK [Peptide L1-184] — lower, 0.593
- RLRRWCVK [Peptide L1-30] — lower, 0.605
- KMRRIMYK [Peptide L1-64] — lower, 0.589
- KARKNSIR [Peptide L1-170] — lower, 0.642
- RIRRGSVR [Peptide L1-57] — lower, 0.408
- KIKKYYWK [Peptide L1-129] — lower, 0.421
- KERKGAVR [Peptide L1-100] — higher, 0.737
- RIRKITWR [Peptide L1-194] — lower, 0.636
- KWRRAFGR [Peptide L1-87] — lower, 0.538
- RPKKHQER [Peptide L1-158] — lower, 0.605
- RQRRMTPR [Peptide L1-156] — lower, 0.589
- KARRNSLK [Peptide L1-175] — lower, 0.621
- KSKRPEGR [Peptide L1-122] — lower, 0.352
